± gives the uncertainty stated by the source.
B1: library; numbered along this chain (parent)
chain: MEVVDPQQLGMFTEGELMSVGMDTFIHRIDSTEVIYQPRRKRAKLIGKYLMGDLLGEGSYGKVKEVLDSETLCRRAVKILKKKKLRRIPNGEANVKKEIQLLRRLRHKNVIQLVDVLYNEEKQKMYMVMEYCVCGMQEMLDSVPEKRFPVCQAHGYFCQLIDGLEYLHSQGIVHKDIKPGNLLLTTGGTLKISDLGVAEALHPFAADDTCRTSQGSPAFQPPEIANGLDTFSGFKVDIWSAGVTLYNITTGLYPFEGDNIYKLFENIGKGSYAIPGDCGPPLSDLLKGMLEYEPAKRFSIRQIRQHSWFRKKHPPAEAPVPIPPSPDTKDRWRSMTVVPYLEDLHGADEDEDLFDIEDDIIYTQDFTVPGQVPEEEASHNGQRRGLPKAVCMNGTEAAQLSTKSRAEGRAPNPARKACSASSKIRRLSACKQQ

Variants of: B1
Experiment: STK11 functional score (HeLa growth suppression), rescaled enrichment; synonymous median = 1, nonsense median = 0 (normalised score)
Details: with HeLa; variant type: missense
Experimental: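 Deep mutational scan (TileSeq/POPCode codon randomisation) of full-length codon-optimised STK11 cDNA integrated at a Bxb1 landing pad (AAVS1) in HeLa cells. Restoring functional STK11 suppresses HeLa proliferation. Variant frequencies were measured by NGS before and after about two weeks of growth. The error-corrected enrichment log-ratio was rescaled so that synonymous median = 1 and nonsense median = 0, scores above 1 were compressed, and codon-level and three biological replicate scores were combined; error is the bootstrapped standard error. Scale: synonymous median = 1, nonsense median = 0; below 0.5 = damaging.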

First: R383S
Second: K175I
The STK11 functional score of the first is higher: 1.3 ± 0.17 for the first, 0.589 ± 0.096 for the second.

S31W and M129R are within error of each other in STK11 functional score: 0.921 ± 0.11 for the first, 1.13 ± 0.28 for the second.

A218D and V173R are within error of each other in STK11 functional score: 0.324 ± 0.12 for the first, 0.37 ± 0.16 for the second.

Going from G91H to K175L, the STK11 functional score rises from 0.418 ± 0.46 to 1.11 ± 0.18.

Compared with Y253V, P144I is lower in STK11 functional score: 1.56 ± 0.22 for the first, 0.87 ± 0.082 for the second.

S378I and V143Y are within error of each other in STK11 functional score: 1.26 ± 0.39 for the first, 1.52 ± 0.22 for the second.

Compared with Q112G, V150S is lower in STK11 functional score: 0.967 ± 0.13 for the first, 0.347 ± 0.13 for the second.

V173C and I192T are within error of each other in STK11 functional score: 0.883 ± 0.57 for the first, -0.0391 ± 0.45 for the second.

First: N259Y
Second: G91P
The STK11 functional score of the first is lower: 1.1 ± 0.1 for the first, 1.62 ± 0.19 for the second.

T363E and H306T are within error of each other in STK11 functional score: 1.6 ± 0.22 for the first, 1.54 ± 0.19 for the second.

Going from R425D to D68L, the STK11 functional score falls from 1.61 ± 0.26 to 0.441 ± 0.14.

D330E and D350E are within error of each other in STK11 functional score: 0.786 ± 0.24 for the first, 1.25 ± 0.56 for the second.

E291V and W332P are within error of each other in STK11 functional score: 1.28 ± 0.14 for the first, 1.63 ± 0.24 for the second.

V110L and R333Y are within error of each other in STK11 functional score: 1.23 ± 0.14 for the first, 1.55 ± 0.23 for the second.

First: P222T
Second: T13F
The STK11 functional score of the first is lower: 0.499 ± 0.25 for the first, 1.25 ± 0.15 for the second.

Going from K78I to E374I, the STK11 functional score rises from -0.0791 ± 0.14 to 1.46 ± 0.25.

Y246T and M136K are within error of each other in STK11 functional score: 0.982 ± 0.41 for the first, 0.279 ± 0.63 for the second.

Y131I and Q364C are within error of each other in STK11 functional score: 1.2 ± 0.3 for the first, 1.28 ± 0.32 for the second.

First: E130R
Second: C134A
The STK11 functional score of the first is lower: 0.369 ± 0.14 for the first, 1.1 ± 0.081 for the second.

S401K and V34G are within error of each other in STK11 functional score: 1.44 ± 0.28 for the first, 1.08 ± 0.45 for the second.

Going from T212N to P89M, the STK11 functional score rises from 0.481 ± 0.46 to 1.55 ± 0.16.

A218M and E16S are within error of each other in STK11 functional score: 1.35 ± 0.59 for the first, 1.39 ± 0.17 for the second.

First: R104T
Second: H168Y
The STK11 functional score of the first is higher: 1.3 ± 0.34 for the first, 0.357 ± 0.26 for the second.

K122E and H379K are within error of each other in STK11 functional score: 0.911 ± 0.6 for the first, 1.37 ± 0.22 for the second.

K122W and A377Y are within error of each other in STK11 functional score: 1.4 ± 0.36 for the first, 1.49 ± 0.16 for the second.

First: K44M
Second: P413H
The STK11 functional score of the first is lower: 0.633 ± 0.17 for the first, 1.61 ± 0.12 for the second.

R103P and V236C are within error of each other in STK11 functional score: 0.985 ± 0.18 for the first, 1.44 ± 0.47 for the second.

L105Y and H306S are within error of each other in STK11 functional score: 1.36 ± 0.08 for the first, 1.53 ± 0.15 for the second.

Compared with I260M, V114S is lower in STK11 functional score: 1.32 ± 0.26 for the first, 0.384 ± 0.1 for the second.

Compared with E65C, V77P is lower in STK11 functional score: 1.07 ± 0.12 for the first, 0.512 ± 0.16 for the second.

Y272T and N380Q are within error of each other in STK11 functional score: 1.44 ± 0.45 for the first, 1.47 ± 0.34 for the second.

First: D352S
Second: A43W
The STK11 functional score of the first is higher: 1.57 ± 0.14 for the first, 1.06 ± 0.11 for the second.

K416G and P144Q are within error of each other in STK11 functional score: 1.55 ± 0.31 for the first, 1.25 ± 0.34 for the second.

V243T and E291S are within error of each other in STK11 functional score: 1.29 ± 0.26 for the first, 1.38 ± 0.14 for the second.

A347T and A406H are within error of each other in STK11 functional score: 1.33 ± 0.14 for the first, 1.6 ± 0.25 for the second.

K416R and E199R are within error of each other in STK11 functional score: 1.54 ± 0.16 for the first, 1.67 ± 0.31 for the second.

First: D350F
Second: S325I
The STK11 functional score of the first is lower: 0.0925 ± 0.3 for the first, 1.56 ± 0.26 for the second.

Compared with F148K, G187R is higher in STK11 functional score: -0.033 ± 0.18 for the first, 0.864 ± 0.65 for the second.

V4E and Y253D are within error of each other in STK11 functional score: 1.09 ± 0.6 for the first, 0.768 ± 0.37 for the second.

E291R and V368L are within error of each other in STK11 functional score: 1.53 ± 0.18 for the first, 1.35 ± 0.23 for the second.

G187V and I192V are within error of each other in STK11 functional score: 0.795 ± 0.26 for the first, 1.33 ± 0.42 for the second.

Going from K269F to V66N, the STK11 functional score falls from 0.789 ± 0.12 to 0.393 ± 0.24.

First: G187A
Second: H379M
The STK11 functional score of the first is lower: 1.09 ± 0.18 for the first, 1.52 ± 0.15 for the second.

Going from K431M to N266K, the STK11 functional score falls from 1.25 ± 0.51 to 0.318 ± 0.26.

R106V and E2Q are within error of each other in STK11 functional score: 1.6 ± 0.15 for the first, 1.21 ± 0.54 for the second.

E199S and S378T are within error of each other in STK11 functional score: 1.21 ± 0.18 for the first, 1.4 ± 0.26 for the second.

K48D and G279H are within error of each other in STK11 functional score: 1.34 ± 0.081 for the first, 1.6 ± 0.31 for the second.

Y131E and L167G are within error of each other in STK11 functional score: 0.174 ± 0.082 for the first, 0.121 ± 0.079 for the second.

Going from N393Y to E223R, the STK11 functional score falls from 1.51 ± 0.15 to 0.921 ± 0.41.

C73R and F234A are within error of each other in STK11 functional score: 1.21 ± 0.15 for the first, 1.35 ± 0.39 for the second.

N380L and V128C are within error of each other in STK11 functional score: 0.908 ± 0.27 for the first, 1.15 ± 0.1 for the second.

L282D and M335E are within error of each other in STK11 functional score: 1.26 ± 0.5 for the first, 1.33 ± 0.16 for the second.

First: M392G
Second: M289D
The STK11 functional score of the first is higher: 1.43 ± 0.22 for the first, 0.312 ± 0.18 for the second.

E407I and G227D are within error of each other in STK11 functional score: 1.61 ± 0.22 for the first, 1.13 ± 0.47 for the second.

Going from S240L to I161D, the STK11 functional score falls from 0.708 ± 0.14 to -0.303 ± 0.097.

V110N and V197M are within error of each other in STK11 functional score: 0.651 ± 0.79 for the first, -0.102 ± 0.17 for the second.

Compared with E291W, I424G is lower in STK11 functional score: 1.35 ± 0.12 for the first, 0.657 ± 0.18 for the second.

S19G and G268S are within error of each other in STK11 functional score: 1.64 ± 0.2 for the first, 1.55 ± 0.18 for the second.

R104L and V372Y are within error of each other in STK11 functional score: 1.4 ± 0.2 for the first, 1.48 ± 0.33 for the second.

Compared with D176M, A218K is higher in STK11 functional score: 0.0191 ± 0.14 for the first, 1.28 ± 0.32 for the second.

N266V and E165S are within error of each other in STK11 functional score: 0.844 ± 0.18 for the first, 1.39 ± 0.38 for the second.

M125V and S232A are within error of each other in STK11 functional score: 0.78 ± 0.12 for the first, 1.04 ± 0.22 for the second.

Going from L252V to S69W, the STK11 functional score falls from 1.3 ± 0.094 to 0.118 ± 0.084.

Compared with E16F, Q399M is lower in STK11 functional score: 1.42 ± 0.42 for the first, 0.653 ± 0.13 for the second.

P38A and E349P are within error of each other in STK11 functional score: 1.06 ± 0.29 for the first, 1.41 ± 0.14 for the second.

Going from T367L to A273D, the STK11 functional score falls from 1.46 ± 0.18 to 0.919 ± 0.14.

G408R and P321D are within error of each other in STK11 functional score: 1.59 ± 0.16 for the first, 1.55 ± 0.18 for the second.

R103Q and K175G are within error of each other in STK11 functional score: 1.27 ± 0.41 for the first, 0.847 ± 0.18 for the second.

P411M and R409E are within error of each other in STK11 functional score: 1.58 ± 0.23 for the first, 1.57 ± 0.19 for the second.

A410D and Q170V are within error of each other in STK11 functional score: 1.17 ± 0.1 for the first, 1.26 ± 0.37 for the second.

Going from K312Q to N181Y, the STK11 functional score falls from 1.58 ± 0.37 to -0.0251 ± 0.098.

N380C and P144W are within error of each other in STK11 functional score: 1.57 ± 0.28 for the first, 1.61 ± 0.15 for the second.

M51V and N119S are within error of each other in STK11 functional score: 0.725 ± 0.34 for the first, 0.694 ± 0.11 for the second.

First: K329W
Second: S334Q
The STK11 functional score of the first is lower: 0.742 ± 0.31 for the first, 1.53 ± 0.13 for the second.

Compared with E351H, L160G is lower in STK11 functional score: 0.374 ± 0.082 for the first, -0.0371 ± 0.071 for the second.

P315W and Q137G are within error of each other in STK11 functional score: 0.723 ± 0.21 for the first, 0.734 ± 0.14 for the second.

Going from E375D to P275E, the STK11 functional score falls from 1.58 ± 0.34 to 0.52 ± 0.15.

Going from L80V to N412R, the STK11 functional score rises from 0.484 ± 0.079 to 1.57 ± 0.2.

I88C and I360F are within error of each other in STK11 functional score: 1.07 ± 0.28 for the first, 0.809 ± 0.12 for the second.

Going from R304A to I111V, the STK11 functional score falls from 1.49 ± 0.18 to 0.948 ± 0.079.

First: K175W
Second: Y272M
The STK11 functional score of the first is lower: 0.478 ± 0.09 for the first, 1.63 ± 0.14 for the second.

K269N and S283L are within error of each other in STK11 functional score: 1.23 ± 0.35 for the first, 0.985 ± 0.11 for the second.

Compared with E92V, I303F is lower in STK11 functional score: 1.02 ± 0.09 for the first, 0.372 ± 0.088 for the second.

T230M showed an STK11 functional score of 0.971 ± 0.28.

Reference: the supplement of paper PMC12338614
